Molecular target: FITC-Dsn1 560-572 synthetic peptide (S. cerevisiae) (S. cerevisiae)
Experiment: fluorescence polarisation

Substance: S. cerevisiae Spc24 155-213/Spc25 132-221 heterodimer (from UniProt Q04477 155-213; P40014 132-221) (complex)
- Kd: 12 µM
